The labels stand for the following.
B1: A-UBI-SAHN D306-Q313, conformer A (peptide)
peptide: Ac-CRQIKIWFQNRRMKWKKLKAQA[R8]IYKARF[S5]AERHAREK-NH2
modifications: staple 23-30; also: extra N-terminal Cys labelled with BODIPY or FITC (label not settled), staple isomer A (cis)
notes: With N-terminal antennapedia; also called A-UBI-SAHND306-Q313 (A)
B2: UBI-SAHN A303-A310, conformer A (peptide)
peptide: Ac-CLK[R8]QADIYK[S5]RFQAERHAREK
modifications: staple 4-11; not fully specified (C-terminus); also: extra N-terminal Cys labelled with BODIPY or FITC (label not settled), staple isomer A (cis)
notes: also called UBI-SAHNA303-A310 (A); A303 R8-A310 S5
B3: A-UBI-SAHN A303-A310, conformer B (peptide)
peptide: Ac-CRQIKIWFQNRRMKWKKLK[R8]QADIYK[S5]RFQAERHAREK-NH2
modifications: staple 20-27; also: Cys1 thiol labelled with BODIPY or FITC (which one not fixed), conformer B
notes: With N-terminal antennapedia
B4: A-UBI-SAHN A303-A310, conformer A (peptide)
peptide: Ac-CRQIKIWFQNRRMKWKKLK[R8]QADIYK[S5]RFQAERHAREK-NH2
modifications: staple 20-27; not fully specified; also: conformer A
notes: With N-terminal antennapedia; also called A-UBI-SAHNA303-A310 (A)
B5: A-UBI-SAHN A310-A314 (peptide)
peptide: Ac-CRQIKIWFQNRRMKWKKLKAQADIYK[S5]RFQ[S5]ERHAREK-NH2
modifications: staple 27-31; also: N-terminal Cys thiol labelled with BODIPY or FITC (BODIPY FL maleimide)
notes: Stapled i,i+4 with N-terminal antennapedia
B6: UBI-SAHN A303-A310, conformer B (peptide)
peptide: Ac-CLK[R8]QADIYK[S5]RFQAERHAREK
modifications: staple 4-11; not fully specified (C-terminus); also: extra N-terminal Cys labelled with BODIPY or FITC (label not settled), staple isomer B (trans)
notes: also called UBI-SAHNA303-A310 (B)
B7: UBI-SAHN A310-A314 (peptide)
peptide: Ac-CLKAQADIYK[S5]RFQ[S5]ERHAREK
modifications: staple 11-15; also: N-terminal Cys thiol labelled with BODIPY or FITC (BODIPY FL maleimide)
notes: Stapled i,i+4; also called A310S5-A314 S5
B8: UBI-AIB (peptide)
peptide: CLK[Aib]Q[Aib]DIYK[Aib]RFQ[Aib]ERH[Aib]REK
modifications: also: extra N-terminal Cys carries BODIPY or FITC label (not settled)
B9: A-UBI-AIB (peptide)
peptide: CRQIKIWFQNRRMKWKKLK[Aib]Q[Aib]DIYK[Aib]RFQ[Aib]ERH[Aib]REK
modifications: also: N-terminal Cys labelled with BODIPY or FITC
B10: UBI-SAHN A303-I307 (peptide)
peptide: Ac-CLK[S5]QAD[S5]YKARFQAERHAREK
modifications: staple 4-8; also: N-terminal Cys thiol labelled with BODIPY or FITC (BODIPY FL maleimide)
notes: Stapled i,i+4; also called A303 S5-I307 S5
B11: UBI-SAHN D306-A310 (peptide)
peptide: Ac-CLKAQA[S5]IYK[S5]RFQAERHAREK
modifications: staple 7-11; also: N-terminal Cys labelled with BODIPY or FITC, which one is not given here
notes: Stapled i,i+4; also called D306 R8-A310 S5
B12: A-UBI-SAHN D306-Q313, conformer B (peptide)
peptide: Ac-CRQIKIWFQNRRMKWKKLKAQA[R8]IYKARF[S5]AERHAREK-NH2
modifications: staple 23-30; also: extra N-terminal Cys labelled with BODIPY or FITC (label not settled), staple isomer B (trans)
notes: With N-terminal antennapedia; also called A-UBI-SAHND306-Q313 (B)
B13: UBI-SAHN D306-Q313 OMe (peptide)
peptide: Ac-CLKAQA[R8]IYKARF[S5]A[GluOMe]RHAR[GluOMe]K
modifications: staple 7-14; also: N-terminal Cys labelled with BODIPY or FITC (which one not given here)
notes: also called D306 R8-Q313 S5 E315MeGlu E320MeGlu
B14: UBI-SAHN D306-Q313 Q/Q (peptide)
peptide: Ac-CLKAQA[R8]IYKARF[S5]AQRHARQK
modifications: staple 7-14; not fully specified (C-terminus); printed as LKAQAX2IYKARFX5AQRHARQK; also: extra N-terminal Cys labelled with BODIPY or FITC, staple cis/trans isomer not given here
notes: also called D306 R8-Q313 S5 E315Q E320Q
B15: A-UBI-SAHN D306-Q313 OMe (peptide)
peptide: Ac-CRQIKIWFQNRRMKWKKLKAQA[R8]IYKARF[S5]A[GluOMe]RHAR[GluOMe]K-NH2
modifications: staple 23-30; also: N-terminal Cys labelled with BODIPY or FITC, which one is not given here
B16: UBI-SAHN D306-A310 with the double substitution Glu-Gln (E315Q E320Q) (peptide)
peptide: LKAQA[S5]IYK[S5]RFQAQRHARQK
modifications: staple 6-10
B17: A-UBI-SAHN D306-Q313 (conformer not stated) (peptide)
peptide: RQIKIWFQNRRMKWKKLKAQA[R8]IYKARF[S5]AERHAREK
modifications: staple 22-29; also: staple conformer not given here
B18: Co-UBI-SAHN I307-A314, conformer B (peptide)
peptide: Ac-CELAQLQAELD[R8]VQAVVQ[S5]DKQELRKL
modifications: staple 12-19; not fully specified (C-terminus); also: extra N-terminal Cys labelled with BODIPY or FITC (label not settled), staple isomer B (trans)
notes: 26 aa control peptide; also called Co-SAHN I307-A314 (B)
B19: Co-UBI-SAHN I307-A314, conformer A (peptide)
peptide: Ac-CELAQLQAELD[R8]VQAVVQ[S5]DKQELRKL
modifications: staple 12-19; not fully specified (C-terminus); also: extra N-terminal Cys labelled with BODIPY or FITC (label not settled), staple isomer A (cis)
notes: 26 aa control peptide; also called Co-SAHN I307-A314 (A); I307 R8-A314 S5

Bridges are numbered along the chain shown (N, C = ends). Where no end group is shown, it is not given here. [ ]: non-standard residue; d: D form. GluOMe = glutamic acid methyl ester; R8 = C=CCCCCCC[C@@](C)(N)C(=O)O; S5 = C=CCCC[C@](C)(N)C(=O)O; Aib = CC(C)(N)C(=O)O

NEMO (NF-kB essential modulator), human, in DLBCL cell lines, sequence (Q9Y6K9 whole entry): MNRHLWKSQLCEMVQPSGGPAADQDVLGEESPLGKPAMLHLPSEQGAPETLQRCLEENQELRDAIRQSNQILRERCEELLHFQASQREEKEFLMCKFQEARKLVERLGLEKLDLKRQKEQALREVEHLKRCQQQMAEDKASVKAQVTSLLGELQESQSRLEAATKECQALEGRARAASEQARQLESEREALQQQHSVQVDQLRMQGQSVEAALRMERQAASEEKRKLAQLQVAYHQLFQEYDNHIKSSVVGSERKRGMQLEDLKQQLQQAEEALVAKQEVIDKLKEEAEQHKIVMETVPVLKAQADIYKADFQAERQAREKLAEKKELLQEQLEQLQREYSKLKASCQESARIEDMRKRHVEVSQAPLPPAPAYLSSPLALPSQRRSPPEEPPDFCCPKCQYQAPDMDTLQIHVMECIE
T1 sequence (O88522 251-337 limits assumed): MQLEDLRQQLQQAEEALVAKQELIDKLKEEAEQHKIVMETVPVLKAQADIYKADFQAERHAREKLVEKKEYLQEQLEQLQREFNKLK

One experiment concerns the target T1, CC2-LZ domain of NEMO (mouse CC2-LZ) (mouse, UniProt O88522 251-337, limits assumed).
T1 construct: domain: CC2-LZ; The methods say that the mouse CC2-LZ was used in the fluorescence anisotropy assay; also called NOA; UBAN
In words: fluorescence polarization, labelled peptide fixed at 0.1 µM, CC2-LZ titrated.
Protocol: (§1) Anisotropy data were calculated using the Magellan software version 6.5. Prior experiments, the mouse CC2-LZ was extensively dialyzed in binding buffer containing 20 mM HEPES pH 7.4, 100 mM NaCl, and 0.05% P20 detergent (v/v). All experiments were performed in a 384 well plate (vol 25 μl) at room temperature. The BODIPY®-labeled peptide concentrations were fixed at 0.1 or 10 μM whereas the CC2-LZ concentration varied from 0 to 100 μM. Reference calibrated at 22 mP, was based on the fluorescence of the peptide alone. Each experimental binding curve was determined from at least 10 independent concentration points. The G-factor was calculated as previously described in Agou et al. [7], with a value of 0.75, which was observed constant within 5% upon all titrations. For analysis, the blank value corresponding to the value of buffer alone, was subtracted from all titration data. The integration time was 20 μs. Experiments were done in duplicate, and the KD was estimated by fitting the anisotropy data with the rectangular hyperbolic binding equation, using KaleidaGraph software as described elsewhere [1].
(§2) For each peptide titration, various concentration of the target ranging from 0 to 100 μM and a fixed concentration of peptide at 0.1 or 10 μM were used at 25° C. […] For these reasons, all further titration experiments were performed with a fixed peptide concentration of 0.1 μM unless otherwise indicated.
Consider B1, for which the Kd (as a rule, the constant that tells how readily two partners part at equilibrium) stood at 0.06 µM.
On the same count and under the same terms, the value for B2 was 76 µM; that for B3 was 0.02 µM.
Same read-out and setting: under B4 stands 0.3 µM; under B5, 0.2 µM; under B6, 211 µM.
Molecule B7 returned a Kd of around 360 µM.
The same measure, in the same setting: the value for B8 was above 10000 µM.
On the same count and under the same terms, the value for B9 was 5 µM; that for B10 was around 360 µM; that for B11 was 85 µM.
Still for that read-out and setting: the value for B12 was 0.05 µM.

In the next experiment the target is T2, NEMO (NF-kB essential modulator) in 70Z3-C3 pre-B lymphocytes (UniProt O88522 1-412, limits assumed). Kind of experiment: cell-based or functional assay.
T2 sequence (O88522 whole entry): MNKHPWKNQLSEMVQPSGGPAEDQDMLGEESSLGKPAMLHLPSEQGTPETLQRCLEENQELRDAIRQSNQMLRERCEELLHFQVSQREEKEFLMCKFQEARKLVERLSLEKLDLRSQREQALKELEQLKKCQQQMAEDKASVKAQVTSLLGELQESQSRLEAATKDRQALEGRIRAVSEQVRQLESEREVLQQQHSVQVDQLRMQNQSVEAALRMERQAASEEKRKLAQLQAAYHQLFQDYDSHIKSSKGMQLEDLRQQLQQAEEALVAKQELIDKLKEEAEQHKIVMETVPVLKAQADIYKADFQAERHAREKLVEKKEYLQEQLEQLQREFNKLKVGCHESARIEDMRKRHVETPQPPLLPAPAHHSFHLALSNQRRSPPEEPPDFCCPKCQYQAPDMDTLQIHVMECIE
For the molecule B1, the “IC 50(µM), NF-κB inhibition in LPS-stimulated 70Z3-C3 lacZ reporter cells” value stood at 0.6 µM.
On the same count and under the same terms, under B3 stands 0.6 µM.
The same measure, in the same setting: the value for B5 was 0.43 µM.
Still for that read-out and setting: under B9 stands 1.5 µM.

The target of a further experiment is T1, CC2-LZ domain of NEMO (mouse CC2-LZ). In words: fluorescence polarization, labelled peptide, CC2-LZ titrated. (In general: Polarisation of emitted light reports the rotation of a fluorescent probe.)
As to B13, the dissociation constant Kd is 24 µM.
On the same count and under the same terms, under B14 stands 23 µM.
In turn, B15 had a Kd of 0.06 µM.

A further experiment concerns the target T2, NEMO (NF-kB essential modulator) in …. In words: cell-based or functional assay. The source holds these as a separate data set.
Turning to B16, the “IC50, NF-κB inhibition in 70Z3-C3 reporter cells” value came out at 1.3 µM.
Same read-out and setting: the value for B13 was 1.9 µM; that for B14 was 0.8 µM.

The next experiment addresses NEMO (NF-kB essential modulator), human, in DLBCL cell lines (human, UniProt Q9Y6K9 1-419). In words: cell-based or functional assay.
As for B17, the “EC50 of cell death, HLY1 cells, depending on incubation time” value lay within 0.65 to 1.1 µM; the “EC50 of cell death, OCY-Ly3 cells, 7 h” value was determined as 2.6 µM; the “EC50 of cell death, OCY-Ly3 cells, 24 h” value was 2.1 µM; the “EC50 of cell death, OCY-Ly3 cells, 48 h” value amounted to 5 µM.

A further experiment concerns the target T1, CC2-LZ domain of NEMO (mouse CC2-LZ). In words: fluorescence polarization, labelled peptide fixed at 10 µM, CC2-LZ titrated.
Protocol: as §1, §2
The molecule B18 displayed a Kd above 10000 µM.
With B5, the affinity, expressed as Kd, was 21 µM.
Still for that read-out and setting: the value for B8 was above 10000 µM.
Still for that read-out and setting: under B19 stands above 10000 µM.
Same read-out and setting: the value for B9 was 24 µM.

The record behind these values is patent US20220025002A1 (INSTITUT PASTEUR, published 2022).
